From US20130273052A1

Columns and labels:
[1] = molecular target: R38Q scFv (variant of the anti-C5 single chain antibody pexelizumab); test: Biacore SPR self-association, R38Q scFv immobilised on CM5 chip, R38Q scFv 0.6-75 µM as analyte; poor fit to the Langmuir model
[2] = molecular target: human complement component C5 protein (human); test: Biacore 3000 SPR, scFv immobilised on CM5 chip, C5 0.1875-24 nM as analyte, 25 C, 1:1 Langmuir model
[3] = molecular target: human complement component C5 protein (human); test: cell-based or functional assay

“R38Q scFv (variant of the anti-C5 single chain antibody pexelizumab)” showed a Kd [1] of 32 µM, a koff [1] of 0.0107 s⁻¹ and a kon [1] of 334 M⁻¹ s⁻¹. The Kd [2] was 0.000108 µM, the koff [2] was 6.06e-05 s⁻¹ and the kon [2] was 559000 M⁻¹ s⁻¹. It also gave an inhibition of chicken erythrocyte hemolysis in about 10% normal human serum (absorbance at 415 nm), IC50 [3] of 2 µg/mL.
